Where two headings read alike, the source gives them in different places.
Experiments:
Assay in all cases: cell-based or functional assay
[1] = biological target: T1, SARS-CoV-2 spike D614 (pseudovirus) (SARS-CoV-2, UniProt P0DTC2 14-1273)
[2] = biological target: T1, SARS-CoV-2 spike D614 (pseudovirus); remark: listed apart in the source
[3] = biological target: T1, SARS-CoV-2 spike D614 (pseudovirus); remark: listed apart in the source
[4] = biological target: T1, SARS-CoV-2 spike D614 (pseudovirus); remark: listed apart in the source
[5] = biological target: T1, SARS-CoV-2 spike D614 (pseudovirus); remark: listed apart in the source

B1: No. 139 antibody (Full IgG) (antibody, V domains shown)
VH: QITLKESGPTLVKPTQTLTLTCSFSGFSLSTSGVGVGWIRQPPGKALEWLALIDWDDNKYHTTSLKTRLTISKDTSKNQVVLTMTNMDPVDTATYYCARIPGFLRYRNRYYYYGMDVWGQGTTVTVSS
VL: ELVLTQPPSVSAAPGQKVTISCSGSSSNIGNNYVSWYQQLPGTAPKLLIYDNNKRPSGIPDRFSGSKSGTSATLGITGLQTGDEADYYCGTWDSSLSAGVFGGGTELTVL
[1]
  IC50: 0.378 ng/mL
[2]
  IC50: 0.35 ng/mL
[3]
  IC50: 0.535 ng/mL
[4]
  IC50: 0.535 ng/mL

B2: No. 32 antibody (Full IgG; Table 3/4 numbering) (antibody, V domains shown)
VH: EVQLVQSGGGLIQPGGSLRLSCAASEFIVSSNYMTWVRQAPGKGLEWVSIIYPGGSTYYADSVKGRFTISRDNSKNTLYLRMNSLRAEDTAVYYCARDLPLTGTTLDYWGQGTLVTVSS
VL: not shown
[3]
  IC50: 4.34 ng/mL
[5]
  IC50: 4.34 ng/mL

Reference: patent KR20220139244A (dated 2022)
